Results published in patent US20220298237A1 (KEIO UNIVERSITY, published 2022).
Substitutions are numbered along the chain they refer to.

T1: oligopeptide ATYPSGHLDM (SEQ ID NO: 1) (human and mouse)
T1 construct: Synthetic peptide; positions 148 to 157 of the human AQP3 polypeptide, identical in mouse; also called peptide used for immunization; oligopeptide 5
T1 peptide: ATYPSGHLDM

T2: human aquaporin 3 (AQP3) on cells (human, UniProt Q92482 1-292)
T2 construct: whole, on cells; Water channel membrane protein; also called human AQP3; AQP3 on HaCaT cells
T2 sequence (looked up): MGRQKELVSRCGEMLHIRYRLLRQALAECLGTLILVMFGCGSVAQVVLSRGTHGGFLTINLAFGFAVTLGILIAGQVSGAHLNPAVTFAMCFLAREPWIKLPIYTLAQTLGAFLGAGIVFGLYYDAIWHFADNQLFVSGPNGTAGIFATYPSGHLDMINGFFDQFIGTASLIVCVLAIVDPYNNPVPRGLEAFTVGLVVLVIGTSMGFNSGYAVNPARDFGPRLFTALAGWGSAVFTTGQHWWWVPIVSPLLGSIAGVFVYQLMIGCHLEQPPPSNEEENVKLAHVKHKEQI

T3: mouse aquaporin 3 (AQP3) on cells (mouse, UniProt Q8R2N1 1-292)
T3 construct: whole, on cells; Water channel membrane protein; also called mouse AQP3; AQP3 on PAM212 cells
T3 sequence (looked up): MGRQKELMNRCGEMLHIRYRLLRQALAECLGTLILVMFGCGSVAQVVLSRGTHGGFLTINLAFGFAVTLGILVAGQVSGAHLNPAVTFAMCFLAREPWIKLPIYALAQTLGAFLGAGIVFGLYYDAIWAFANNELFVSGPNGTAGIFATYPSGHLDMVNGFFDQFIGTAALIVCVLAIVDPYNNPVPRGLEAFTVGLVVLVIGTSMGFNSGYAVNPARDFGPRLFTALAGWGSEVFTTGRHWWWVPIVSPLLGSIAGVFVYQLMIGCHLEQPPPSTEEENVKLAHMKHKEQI

T4: mouse AQP3 in lysate of HEK293T cells overexpressing mouse AQP3 and a myc-biotinylated tag (mouse, UniProt Q8R2N1 1-292)
T4 construct: Cell lysate used in ELISA; also called AQP3 containing cell lysate; not shown: myc-biotinylated tag
T4 sequence (looked up): T3 sequence (looked up)

B1: BC-A8 (Fab) (Fab, V domains shown)
VH: QTVKESGGRLVTPGAPLTLTCTVSRFSLSSYAMTWVRQAPGKGLEWIGIINNDGSSSTWYASWVKGRFTISKTSTTMDLKMTSLTTEDTATYFCARGGTSGYDIWGPGTLVTVSL
VL: AQGLTQTPSPVSAAVGGTVTINCQSSPSVYKNYLSWYQQKPGQPPKLLIYGASTLASGVPSRFKGSGSGTQFTLTISDVQCDDAATYYCAGGYRGSSDIFAFGGGTEVVVK
B2: SC-D1 (Fab) (Fab, V domains shown)
VH: B1 VH with T2S, V3L, K4E, G7R, A15G, P16S, R25G, S55V
VL: B1 VL with A1D, Q2P, G3M, L4M, D78G
B3: BC-E2 (Fab) (Fab, V domains shown)
VH: QEQLKESGGRLVTPGAPLTLTCTVSRFSLSSYAMTWVRQAPGKGLEWIGIINNDGISSTWYASWVKGRFTISKTSTTMDLKMTSLTTEDTATYFCARGGTSGYDIWGPGTLVTVSL
VL: B1 VL with Q2V, G3V, G51K
B4: SC-C7 (Fab) (Fab, V domains shown)
VH: B1 VH with S30G, G54I, S56G, L115S
VL: B1 VL with A1D, Q2V, G3V, L4M
B5: SC-B2 (Fab) (Fab, V domains shown)
VH: B3 VH with K5M, G8R, A16G, P17S, S31N
VL: B1 VL with L4P, S97G
B6: SC-G8 (Fab) (Fab, V domains shown)
VH: B1 VH with T2S, K4E, T12M, A15G, P16S, V23A, R25G, S56G
VL: B1 VL with Q2A, G3V, G51K, S96Y
B7: BC-E3 (Fab) (Fab, V domains shown)
VH: B1 VH with T2S, T12A, A15T, T22A, R25G, S55R, L84P
VL: B1 VL with L4M, Q71R
B8: BC-G6 (Fab) (Fab, V domains shown)
VH: B1 VH with T2S, K4E, A15G, P16S, V23A, R25G, S30G, S55I
VL: B1 VL with Q2L, G3V, L4M
B9: BC-A3 (Fab) (Fab, V domains shown)
VH: B1 VH with S55V
VL: B1 VL with G3V, S9A, P10S, G16R, P41S
B10: BC-F7 (Fab) (Fab, V domains shown)
VH: B1 VH with T2S, K4E, A15G, P16S, S55I, L110V
VL: B1 VL with Q2L, G3V, P27Q, S97G
B11: BC-B4 (Fab) (Fab, V domains shown)
VH: B1 VH with T2S, K4E, A15G, P16S, S55I, L110V
VL: B1 VL with Q2L, G3V, P27Q, S97G
B12: BC-C8 (Fab) (Fab, V domains shown)
VH: B1 VH with T2S, V3L, K4E, A15G, P16S, S55I, L110V
VL: B1 VL with Q2L, G3V
B13: BC-H4 (Fab) (Fab, V domains shown)
VH: B1 VH with T2Q, V3L, S55V, L115S
VL: B1 VL with Q2L, G3V, S97G
B14: BC-A9 (Fab) (Fab, V domains shown)
VH: B1 VH with T2S, K4E, A15G, P16S, S55I, L110V
VL: B1 VL with S9A, P10S, P41S, V59A
B15: BC-E4 (Fab) (Fab, V domains shown)
VH: B1 VH with T2S, T12A, A15T, T22A, R25G, S55R, L84P
VL: B1 VL with L4M, Q71R
B16: BC-E1 (Fab) (Fab, V domains shown)
VH: B1 VH with T2S, T12A, A15T, T22A, R25G, S55R, L84P
VL: B1 VL with L4M, Q71R
B17: SC-H10 (Fab) (Fab, V domains shown)
VH: B1 VH with T2S, V3L, K4E, S55I
VL: B1 VL with K64S
B18: SC-F6 (Fab) (Fab, V domains shown)
VH: B1 VH with T2S, S55I
VL: B1 VL with L4M, S9A, P10S, P41S
B19: BC-F2 (Fab) (Fab, V domains shown)
VH: B1 VH with T2S, T12A, A15T, T22A, R25G, S55R, L84P
VL: B1 VL with L4M, Q71R
B20: SC-D10 (Fab) (Fab, V domains shown)
VH: B1 VH with T2S, A15G, P16S, S55V
VL: B1 VL with Q2L, G3V, L4M, I21T, G51K, K64S
B21: BC-E11 (Fab) (Fab, V domains shown)
VH: B1 VH with T2S, T12A, A15T, T22A, R25G, S55R, L84P
VL: B1 VL with L4M, Q71R
B22: Antibody B (antibody, mouse IgG2a, kappa, V domains shown)
VH: EVQLVESGGDLVKPGGSLKLSCAASGFTFSSYGMSWVRQTPDKRLEWVATISRGSIYTYYPDSVKGRFTISRDNAKNTLYLQMSSLKSEDTAMYYCARLSLYDYDGARYTMDYWGQGTSVTVSS
VL: DIVMTQSPKFMSTSVGDRVSITCKASQDVGTAVAWYQQKPGQSPKLLIYWASTRHTGVPDRFTGSGSGTDFTLTISNVQSEDLADYFCQQYSSYHTFGAGTKLELKR
notes: also called anti AQP3 antibody B
B23: Antibody K (antibody, mouse IgG2a, kappa, V domains shown)
VH: QVQLKQSGAELVRPGTSVKVSCKASGYAFTNYLIEWVKQRPGQGLEWIGVINPGSGGTNYNEKFKGKATLTADKSSSTAYMQLSSLTSEDSAVYFCARWGFYYAMDYWGQGTSVTVSS
VL: DIVMTQSPSSLSASLGERVSLTCRASQEISGYLSWLQQKPDGTIKRLIYAASTLDSGVPKRFSGSRSGSDYSLTISSLESEDFADYYCLQYASYPLTFGAGTKLEIKR
notes: also called anti AQP3 antibody K
B24: Antibody D (antibody, mouse IgG2a, kappa, V domains shown)
VH: EVQLQQSGAELVRPGASVTLSCKASGYTFTDYEMHWVQQTPVHGLEWIGGIDPETGGTGYNQKFKGKAILTADKSSSTAYMELRSLTSEDSAVYFCTRHGSYAMDYWGQGTSVTVSS
VL: DIVMTQSPKFMSTSVGDRVSITCKASQDVSTAVAWYQQKPGQSPKLLIYWASTRHTGVPDRFTGSGSGTDYTLTISSVQAEDLALYYCQQHYSTPPTFGGGTRLEIKR
notes: also called anti AQP3 antibody D
B25: Antibody A (antibody, mouse IgG2a, kappa, V domains shown)
VH: QVQLQQPGAELVRPGASVTLSCKASGYTFTDYEMHWVKQTPVHGLEWIGGVDPETGGTGYNQKFRGKAILTADKSSSTAYMELRSLTSEDSAVYYCARHGGSFYAMDYWGQGTSVTVSS
VL: B24 VL with R103K, I106L
notes: also called anti AQP3 antibody A
B26: Antibody F (antibody, mouse IgG2a, kappa, V domains shown)
VH: QVQLKESGPELVKPGASVKISCKASGYTFTDYYINWVKQRPGQGLEWIGWIFPGSGSTYYNEKFKGKATLTVDKSSSTAYMLLSSLTSEDSAVYFCADYGSSYRYFDVWGAGTTVTVSS
VL: DIVMTQSPAILSASPGEKVTMTCRASSSVSYMHWYQQKPGSSPKPWIYATSYLASGVPARFSGSGSGTSYSLTIGRVEAEDAATYYCQQWSSNPLTFGAGTKLELKR
notes: also called anti AQP3 antibody F; Antiboy F

Molecular target: T1, oligopeptide ATYPSGHLDM (SEQ ID NO: 1)
Assay: ELISA on peptide, Fab

binding result | Binder
binds | B1
binds | B2
binds | B3
binds | B4
binds | B5
binds | B6
binds | B7
binds | B8
binds | B9
binds | B10
binds | B11
binds | B12
binds | B13
binds | B14
binds | B15
binds | B16
binds | B17
binds | B18
binds | B19
binds | B20
binds | B21

Molecular target: T1, oligopeptide ATYPSGHLDM (SEQ ID NO: 1)
Assay: ELISA on the immunogen peptide (FIG. 2)

binding result | Binder
binds | B22
binds | B23

Each binder was assayed against T2, human aquaporin 3 (AQP3) on cells (assay: fluorescence binding assay on HaCaT cells, 10 µg/mL (FIG. 5C)).

binding result | Binder
binds | B24

Each binder was assayed against T3, mouse aquaporin 3 (AQP3) on cells (assay: fluorescence binding assay on PAM212 cells, 10 µg/mL (FIG. 5B)).
Experimental: PAM212 and macrophage cells were reacted with each anti AQP3 antibody (0.1, 1, or 10 μg/mL) at 4° C. for 1 hour. After washing the cells, a fluorescent-labeled secondary antibody was added and the reaction was allowed to occur additionally for 1 hour (4° C.). By measuring the fluorescence intensity, the binding property of each anti AQP3 antibody to cells was obtained.
The assay was also performed using PAM212 cells and antibodies A, B, C, D, E, F, G, H, and J at a concentration of 10 μg/mL. Binding of antibodies C, D, E, G, and J to PAM212 cells was statistically significant.

binding result | Binder
binds | B24

These binders were tested against T4, mouse AQP3 in lysate of HEK293T cells … (assay: ELISA on lysate of HEK293T cells overexpressing mouse AQP3 (FIG. 3)).
From the text: Cell lysate from HEK293T cells overexpressing mouse AQP3 and a myc-biotinylated tag was used in an ELISA assay to measure the binding of antibodies A, B, C, D, E, F, G, H, J, and K to AQP3. Cell lysate from HEK293T cells overexpressing the myc-biotinylated tag but not AQP3 was used as control. […] C. Antibody binding to AQP3 expressing cells

binding result | Binder
binds | B24
binds | B25
binds | B26
binds | B22
binds | B23
